# Measured values: patent US4642335A, “Anthracycline compounds bound to hydrophilic polypeptides” (Ajinomoto Co., Inc., priority 1984, dated 1987)
# Tested on: mouse L1210 leukemia
# Experiment: antitumor activity against mouse L1210 leukemia, life prolongation rate
# Assay type: in vivo
# Settings: dose 1 mg/Kg, once a day for five days starting 24 hours after tumor cell injection; control survival day = 100%
# Experimental: (§1) These HB-6 substances were tested for their antitumor activity in terms of mouse L1210 leukemia. L1210 leukemia cells (1×10^5) were abdominally injected to each mouse, and the test sample was administered once a day for consecutive five days, with the first administration being started 24 hours after injection of the tumor cells. The result is summarized in Table 1, in which the antitumor activity of each drug is expressed as life prolongation rate, taking the survival day for the control group as 100%.
# as §1, with “HBW-6” for “HB-6”, “2,” for “1,”
row,Molecule,Life Prolongation Rate [%]
1,"HBW-18(B): NCS-apoprotein and cosmomycin A bound together, molar ratio 1:5 (conjugate, UniProt P0A3R9 35-147, looked up, complex with cosmomycin A, 1:5) Neocarzinostatin: AAPTATVTPSSGLSDGTVVKVAGAGLQAGTAYDVGQCAWVDTGVLACNPADFSSVTADANGSASTSLTVRRSFEGFLFDGTRWGTVDCTTAACQVGLSDAAGNGPEGVAISFN",175
2,"HBW-22(A): NCS-apoprotein and γ-rhodomycin Y bound together, molar ratio 1:1 (conjugate, UniProt P0A3R9 35-147, looked up, γ-rhodomycin Y conjugate, 1:1) Neocarzinostatin: AAPTATVTPSSGLSDGTVVKVAGAGLQAGTAYDVGQCAWVDTGVLACNPADFSSVTADANGSASTSLTVRRSFEGFLFDGTRWGTVDCTTAACQVGLSDAAGNGPEGVAISFN",158
3,"HB-22(B): NCS-apoprotein and γ-rhodomycin Y bound together, molar ratio 1:5 (conjugate, UniProt P0A3R9 35-147, looked up, γ-rhodomycin Y conjugate, 1:5) Neocarzinostatin: AAPTATVTPSSGLSDGTVVKVAGAGLQAGTAYDVGQCAWVDTGVLACNPADFSSVTADANGSASTSLTVRRSFEGFLFDGTRWGTVDCTTAACQVGLSDAAGNGPEGVAISFN",150
4,"HBW-18(A): NCS-apoprotein and cosmomycin A bound together, molar ratio 1:1 (conjugate, UniProt P0A3R9 35-147, looked up, complex with cosmomycin A, 1:1) Neocarzinostatin: AAPTATVTPSSGLSDGTVVKVAGAGLQAGTAYDVGQCAWVDTGVLACNPADFSSVTADANGSASTSLTVRRSFEGFLFDGTRWGTVDCTTAACQVGLSDAAGNGPEGVAISFN",170
5,"HBW-20(B): NCS-apoprotein and adriamycin bound together, molar ratio 1:5 (conjugate, UniProt P0A3R9 35-147, looked up, adriamycin conjugate, 1:5) Neocarzinostatin: AAPTATVTPSSGLSDGTVVKVAGAGLQAGTAYDVGQCAWVDTGVLACNPADFSSVTADANGSASTSLTVRRSFEGFLFDGTRWGTVDCTTAACQVGLSDAAGNGPEGVAISFN",245
6,"HBW-10(B): NCS-apoprotein and daunomycin bound through hydrogen bond and/or hydrophobic bond, molar ratio 1:5 (conjugate, UniProt P0A3R9 35-147, looked up, noncovalent complex with daunomycin, 1:5) Neocarzinostatin: AAPTATVTPSSGLSDGTVVKVAGAGLQAGTAYDVGQCAWVDTGVLACNPADFSSVTADANGSASTSLTVRRSFEGFLFDGTRWGTVDCTTAACQVGLSDAAGNGPEGVAISFN",270
7,"HB-22(A): NCS-apoprotein and γ-rhodomycin Y bound together, molar ratio 1:1 (conjugate, UniProt P0A3R9 35-147, looked up, complex with gamma-rhodomycin Y, 1:1) Neocarzinostatin: AAPTATVTPSSGLSDGTVVKVAGAGLQAGTAYDVGQCAWVDTGVLACNPADFSSVTADANGSASTSLTVRRSFEGFLFDGTRWGTVDCTTAACQVGLSDAAGNGPEGVAISFN",145
8,"HBW-22(B): NCS-apoprotein and γ-rhodomycin Y bound together, molar ratio 1:5 (conjugate, UniProt P0A3R9 35-147, looked up, complex with gamma-rhodomycin Y, 1:5) Neocarzinostatin: AAPTATVTPSSGLSDGTVVKVAGAGLQAGTAYDVGQCAWVDTGVLACNPADFSSVTADANGSASTSLTVRRSFEGFLFDGTRWGTVDCTTAACQVGLSDAAGNGPEGVAISFN",162
9,"HBW-20(A): NCS-apoprotein and adriamycin bound together, molar ratio 1:1 (conjugate, UniProt P0A3R9 35-147, looked up, noncovalent complex with adriamycin, 1:1) Neocarzinostatin: AAPTATVTPSSGLSDGTVVKVAGAGLQAGTAYDVGQCAWVDTGVLACNPADFSSVTADANGSASTSLTVRRSFEGFLFDGTRWGTVDCTTAACQVGLSDAAGNGPEGVAISFN",268

# Same assay, conditions: dose 2 mg/Kg, once a day for five days starting 24 hours after tumor cell injection; control survival day = 100%
row,Molecule,Life Prolongation Rate [%]
1,"CC[C@@]1(O)C[C@H](O[C@H]2C[C@H](N(C)C)[C@H](O[C@H]3C[C@H](O)[C@H](O[C@H]4CCC(=O)[C@H](C)O4)[C@H](C)O3)[C@H](C)O2)c2c(cc3c(c2O)C(=O)c2c(O)cccc2C3=O)[C@H]1C(=O)OC [Aclacinomycin A, aclacinomycin A, reference compound]",135
2,"COc1cccc2c1C(=O)c1c(O)c3c(c(O)c1C2=O)C[C@@](O)(C(=O)CO)C[C@@H]3O[C@H]1C[C@H](N)[C@H](O)[C@H](C)O1 [Adriamycin, adriamycin, reference compound]",150
3,"HB-10(A): NCS-apoprotein and daunomycin combined at molar ratio 1:1 (conjugate, UniProt P0A3R9 35-147, looked up, complex with daunomycin, 1:1) Neocarzinostatin: AAPTATVTPSSGLSDGTVVKVAGAGLQAGTAYDVGQCAWVDTGVLACNPADFSSVTADANGSASTSLTVRRSFEGFLFDGTRWGTVDCTTAACQVGLSDAAGNGPEGVAISFN",250
4,"HB-21(B): NCS-apoprotein and aclacinomycin A bound together, molar ratio 1:5 (conjugate, UniProt P0A3R9 35-147, looked up, aclacinomycin A conjugate, 1:5) Neocarzinostatin: AAPTATVTPSSGLSDGTVVKVAGAGLQAGTAYDVGQCAWVDTGVLACNPADFSSVTADANGSASTSLTVRRSFEGFLFDGTRWGTVDCTTAACQVGLSDAAGNGPEGVAISFN",145
5,"HB-18(A): NCS-apoprotein and cosmomycin A bound together, molar ratio 1:1 (conjugate, UniProt P0A3R9 35-147, looked up, cosmomycin A conjugate, 1:1) Neocarzinostatin: AAPTATVTPSSGLSDGTVVKVAGAGLQAGTAYDVGQCAWVDTGVLACNPADFSSVTADANGSASTSLTVRRSFEGFLFDGTRWGTVDCTTAACQVGLSDAAGNGPEGVAISFN",168
6,"HB-10(D): NCS-apoprotein and daunomycin combined at molar ratio 4:1 (conjugate, UniProt P0A3R9 35-147, looked up, complex with daunomycin, 4:1) Neocarzinostatin: AAPTATVTPSSGLSDGTVVKVAGAGLQAGTAYDVGQCAWVDTGVLACNPADFSSVTADANGSASTSLTVRRSFEGFLFDGTRWGTVDCTTAACQVGLSDAAGNGPEGVAISFN",200
7,"HB-10(B): NCS-apoprotein and daunomycin combined at molar ratio 1:10 (conjugate, UniProt P0A3R9 35-147, looked up, daunomycin conjugate, 1:10) Neocarzinostatin: AAPTATVTPSSGLSDGTVVKVAGAGLQAGTAYDVGQCAWVDTGVLACNPADFSSVTADANGSASTSLTVRRSFEGFLFDGTRWGTVDCTTAACQVGLSDAAGNGPEGVAISFN",265
8,"HB-20(B): NCS-apoprotein and adriamycin bound together, molar ratio 1:5 (conjugate, UniProt P0A3R9 35-147, looked up, complex with adriamycin, 1:5) Neocarzinostatin: AAPTATVTPSSGLSDGTVVKVAGAGLQAGTAYDVGQCAWVDTGVLACNPADFSSVTADANGSASTSLTVRRSFEGFLFDGTRWGTVDCTTAACQVGLSDAAGNGPEGVAISFN",205
9,"HB-10(C): NCS-apoprotein and daunomycin combined at molar ratio 2:1 (conjugate, UniProt P0A3R9 35-147, looked up, daunomycin conjugate, 2:1) Neocarzinostatin: AAPTATVTPSSGLSDGTVVKVAGAGLQAGTAYDVGQCAWVDTGVLACNPADFSSVTADANGSASTSLTVRRSFEGFLFDGTRWGTVDCTTAACQVGLSDAAGNGPEGVAISFN",230
10,"HB-20(A): NCS-apoprotein and adriamycin bound together, molar ratio 1:1 (conjugate, UniProt P0A3R9 35-147, looked up, complex with adriamycin, 1:1) Neocarzinostatin: AAPTATVTPSSGLSDGTVVKVAGAGLQAGTAYDVGQCAWVDTGVLACNPADFSSVTADANGSASTSLTVRRSFEGFLFDGTRWGTVDCTTAACQVGLSDAAGNGPEGVAISFN",200
11,"HB-21(A): NCS-apoprotein and aclacinomycin A bound together, molar ratio 1:1 (conjugate, UniProt P0A3R9 35-147, looked up, complex with aclacinomycin A, 1:1) Neocarzinostatin: AAPTATVTPSSGLSDGTVVKVAGAGLQAGTAYDVGQCAWVDTGVLACNPADFSSVTADANGSASTSLTVRRSFEGFLFDGTRWGTVDCTTAACQVGLSDAAGNGPEGVAISFN",142
12,"HB-18(B): NCS-apoprotein and cosmomycin A bound together, molar ratio 1:5 (conjugate, UniProt P0A3R9 35-147, looked up, cosmomycin A conjugate, 1:5) Neocarzinostatin: AAPTATVTPSSGLSDGTVVKVAGAGLQAGTAYDVGQCAWVDTGVLACNPADFSSVTADANGSASTSLTVRRSFEGFLFDGTRWGTVDCTTAACQVGLSDAAGNGPEGVAISFN",170
